What was measured:
Test in all cases: filter binding
[1] = molecular target: T1, Sc CTD (Saccharomyces cerevisiae) (UniProt P48527); settings: 25C; n=1.8; 100 mM KCl, 5 mM MgCl2, 20 mM Tris-HCl pH 7.5, 5 mM DTT, 0.1 mg/ml BSA, 10% glycerol, 5 pM RNA, 30 min, 25C or 37C; nitrocellulose/nylon filter
T1 sequence: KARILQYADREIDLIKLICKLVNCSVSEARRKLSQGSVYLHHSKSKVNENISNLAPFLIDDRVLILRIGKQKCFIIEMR

[2] = system: Sc mtTyrRS (Saccharomyces cerevisiae); settings: 100 mM KCl, 5 mM MgCl2, 20 mM Tris-HCl pH 7.5, 5 mM DTT, 0.1 mg/ml BSA, 10% glycerol, 5 pM RNA, 30 min, 25C or 37C; nitrocellulose/nylon filter
[3] = molecular target: T2, CYT-18 NTDs (Neurospora crassa) (UniProt P12063); settings: 100 mM KCl, 5 mM MgCl2, 20 mM Tris-HCl pH 7.5, 5 mM DTT, 0.1 mg/ml BSA, 10% glycerol, 5 pM RNA, 30 min, 25C or 37C, nitrocellulose/nylon filter
T2 sequence: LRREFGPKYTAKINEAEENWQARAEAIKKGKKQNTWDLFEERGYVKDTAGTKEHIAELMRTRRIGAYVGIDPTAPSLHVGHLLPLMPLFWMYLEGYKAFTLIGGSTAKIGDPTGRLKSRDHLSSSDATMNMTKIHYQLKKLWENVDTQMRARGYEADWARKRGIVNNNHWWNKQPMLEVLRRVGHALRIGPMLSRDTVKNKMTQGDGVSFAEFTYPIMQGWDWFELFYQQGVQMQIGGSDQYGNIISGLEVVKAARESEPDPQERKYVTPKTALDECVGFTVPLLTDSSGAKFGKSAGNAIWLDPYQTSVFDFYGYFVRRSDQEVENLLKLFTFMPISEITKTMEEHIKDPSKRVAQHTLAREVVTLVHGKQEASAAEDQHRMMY

Row | Substance | K half [1] [nM] | Kd [2] [nM] | Kd [3] [nM] | K half ([3]; 25C, n=1.6) [nM] | Kd ([3]; 25C, low end of stated range, strongest group I intron) [nM] | Kd ([3]; 37C, low end of stated range, strongest group I intron) [nM] | Kd ([3]; 25C, high end of stated range, weakest group I intron) [nM] | Kd ([3]; 37C, high end of stated range, weakest group I intron) [nM]
1 | Ll.LtrB group II intron RNA (dORF, branch-point nucleotide deleted) | 110 | 440 | 440 | 240 | – | – | – | –
2 | Nc ND1m group I intron RNA | – | – | – | – | 200 | 440 | – | –
3 | Nc mt LSU group I intron RNA | – | 430 | – | – | – | – | 590 | 740

— paper PMC4275181
